Changes are numbered by the printed parent chain. In names and notes the source's numbering stands. Read-outs that look alike come from different tables or passages of the source.

Experiment in all cases: liposome flotation
The target of test [1] is mArf1p (wild type or Q71L not told) (yeast) (UniProt P11076).
In test [2] the target is T1, Chs5–Chs6[all] complex (yeast, UniProt Q12114 1-671; P40955 1-746; Q05029 1-724; Q08754 1-746; P36122 1-765).
The target in test [3] is T1, Chs5–Chs6[all] complex. This is another data set of the same source.
In test [4] the target is Complex of Chs5p with two paralogues (Chs6p and Bch1p) (yeast, UniProt Q12114 1-671; P40955 1-746; Q05029 1-724).
Complex of Chs5p with two paralogues (Chs6p and Bch1p), sequence (Q12114 whole entry, chain 1 of 3): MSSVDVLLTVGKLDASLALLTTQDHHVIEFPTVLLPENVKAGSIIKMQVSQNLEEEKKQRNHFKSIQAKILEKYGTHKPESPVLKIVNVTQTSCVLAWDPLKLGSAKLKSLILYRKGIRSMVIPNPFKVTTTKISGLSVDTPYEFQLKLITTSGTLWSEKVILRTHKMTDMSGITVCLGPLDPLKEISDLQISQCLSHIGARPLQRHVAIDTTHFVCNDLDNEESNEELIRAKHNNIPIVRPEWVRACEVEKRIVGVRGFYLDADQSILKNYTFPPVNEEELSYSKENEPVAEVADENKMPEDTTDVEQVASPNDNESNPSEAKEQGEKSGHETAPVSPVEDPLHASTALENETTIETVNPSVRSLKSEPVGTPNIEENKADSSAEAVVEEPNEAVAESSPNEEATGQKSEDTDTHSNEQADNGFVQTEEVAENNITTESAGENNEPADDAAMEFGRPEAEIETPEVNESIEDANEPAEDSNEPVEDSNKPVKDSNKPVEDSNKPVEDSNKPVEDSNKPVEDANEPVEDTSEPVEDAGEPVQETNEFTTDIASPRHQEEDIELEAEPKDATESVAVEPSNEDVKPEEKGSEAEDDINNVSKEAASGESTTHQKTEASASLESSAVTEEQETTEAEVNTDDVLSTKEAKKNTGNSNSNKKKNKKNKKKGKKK
Complex of Chs5p with two paralogues (Chs6p and Bch1p), sequence (P40955 whole entry, chain 2 of 3): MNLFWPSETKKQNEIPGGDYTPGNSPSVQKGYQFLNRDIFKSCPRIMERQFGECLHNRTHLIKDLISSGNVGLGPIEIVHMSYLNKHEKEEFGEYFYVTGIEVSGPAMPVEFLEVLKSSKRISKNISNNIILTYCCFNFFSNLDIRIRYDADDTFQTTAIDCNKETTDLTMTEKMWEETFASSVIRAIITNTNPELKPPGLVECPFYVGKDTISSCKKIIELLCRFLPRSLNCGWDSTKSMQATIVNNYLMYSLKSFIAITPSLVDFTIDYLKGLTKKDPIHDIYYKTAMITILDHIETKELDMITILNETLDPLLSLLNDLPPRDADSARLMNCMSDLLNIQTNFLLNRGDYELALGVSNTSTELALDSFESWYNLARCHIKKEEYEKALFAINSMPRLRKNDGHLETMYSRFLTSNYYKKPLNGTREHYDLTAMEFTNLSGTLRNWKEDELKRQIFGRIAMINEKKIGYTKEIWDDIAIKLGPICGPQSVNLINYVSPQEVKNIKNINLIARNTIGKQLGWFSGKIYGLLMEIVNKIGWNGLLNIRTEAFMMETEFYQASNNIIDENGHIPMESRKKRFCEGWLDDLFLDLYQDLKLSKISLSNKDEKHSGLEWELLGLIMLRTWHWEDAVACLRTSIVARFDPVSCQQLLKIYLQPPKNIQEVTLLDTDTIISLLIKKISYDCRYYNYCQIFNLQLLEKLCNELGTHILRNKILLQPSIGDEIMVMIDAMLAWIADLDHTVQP
Complex of Chs5p with two paralogues (Chs6p and Bch1p), sequence (Q05029 whole entry, chain 3 of 3): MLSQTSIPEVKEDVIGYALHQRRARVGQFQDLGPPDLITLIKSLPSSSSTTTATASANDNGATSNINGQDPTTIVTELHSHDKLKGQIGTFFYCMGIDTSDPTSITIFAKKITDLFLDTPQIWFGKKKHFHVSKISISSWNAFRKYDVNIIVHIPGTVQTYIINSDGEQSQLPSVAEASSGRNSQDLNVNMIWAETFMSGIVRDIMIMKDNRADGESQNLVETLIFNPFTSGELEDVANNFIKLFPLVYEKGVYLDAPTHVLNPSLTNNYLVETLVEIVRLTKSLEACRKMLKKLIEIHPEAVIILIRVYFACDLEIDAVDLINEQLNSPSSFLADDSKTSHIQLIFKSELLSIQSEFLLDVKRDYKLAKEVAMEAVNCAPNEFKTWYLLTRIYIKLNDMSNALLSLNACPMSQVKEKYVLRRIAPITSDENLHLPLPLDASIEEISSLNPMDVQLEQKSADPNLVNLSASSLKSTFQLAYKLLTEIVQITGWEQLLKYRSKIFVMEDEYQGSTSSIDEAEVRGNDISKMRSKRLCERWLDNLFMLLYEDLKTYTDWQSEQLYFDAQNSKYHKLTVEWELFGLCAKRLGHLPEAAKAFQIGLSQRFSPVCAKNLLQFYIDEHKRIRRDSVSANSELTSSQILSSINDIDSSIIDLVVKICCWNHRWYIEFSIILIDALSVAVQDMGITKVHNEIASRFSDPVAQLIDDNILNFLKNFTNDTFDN

For the molecule “Chs5–Chs6[all] complex (from UniProt Q12114 1-671; P40955 1-746; Q05029 1-724; Q08754 1-746; P36122 1-765)”, in test [1], the concentration of Chs5–Chs6[all] at which binding was saturated (∼1 μM mArf1p) stood at 0.5 µM and the stoichiometry N (Arf1 per Chs5–Chs6[all] complex (molar)) is 7.5.

B1: Recombinant myristoylated Arf1p (Q71L; GTPase deficient) (natural protein, yeast, UniProt P11076 1-181, looked up)
chain: MGLFASKLFSNLFGNKEMRILMVGLDGAGKTTVLYKLKLGEVITTIPTIGFNVETVQYKNISFTVWDVGGLDRIRSLWRHYYRNTEGVIFVVDSNDRSRIGEAREVMQRMLNEDELRNAAWLVFANKQDLPEAMSAAEITEKLGLHSIRNRPWFIQATCATSGEGLYEGLEWLSNSLKNST
modifications: N-myristoylated (>75% of the protein)
Consider B1, for which the binding result with Chs5–Chs6[all] complex [2] is “binds”.

B2: Myristoylated wild-type Arf1p (natural protein, yeast, UniProt P11076 1-181, looked up)
chain: B1 chain with L71Q
modifications: N-myristoylated (>75% of the protein)
Take B2: the binding result (with Chs5–Chs6[all] complex [3]; in test [4]) was “binds” throughout.

The values above are taken from PMC2064389 (The Journal of Cell Biology, 2006).
